# Results taken from patent US20260258397A1, “REAGENTS AND SYSTEMS FOR […]” (priority 2023, published 2026).
# “Also recorded” adds a separate entry of the source. Where two headings read alike, the source gives them in different places.
# B1: PYR1^DIAZI (protein)
# chain: MPSELTPGERSELKNSIAEFHTYQLDPGSCSSLHAQRIHAPPELVWSIVRRFDKPQTYKHFIKSCSVEQNFEMRVGCTRDYIVISGMPANTSTERLDILDDERRVTGYSIIGGEHRLTNYKSVTTVHRFEKENRIWTVVLESYVVDMPEGNSEDDTRVGVDTVVKLNLQKLATVAEAMARNSGDGSGSQVT
# B2: PYR1^PIRI (protein)
# chain: MPSELTPEERSELKNSIAEFHTYQLDPGSCSSLHAQRIHAPPELVWSIVRRFDKPQTYRHFIKSCSVEQNFEMRVGCTRDVIVISGLPANTMTERLDILDDERRVTGFSIIGGEHRLTSYKQVTTVHRFGKENRIWTVVLESYVVDMPEGNSEDDTRMTTDTVVKLNLQKLATAAEAMARNSGDGSGSQVT
# B3: PYL2^WIN: PYL2 sensor (K64Q, F165A, V1661), SEQ ID NO: 37 (protein)
# chain: MSSSPAVKGLTDEEQKTLEPVIKTYHQFEPDPTTCTSLITQRIHAPASVVWPLIRRFDNPERYQHFVKRCRLISGDGDVGSVREVTVISGLPASTSTERLEFVDDDHRVLSFRVVGGEHRLKNYKSVTSVNEFLNQDSGKVYTVVLESYTVDIPEGNTEEDTKMAIDTVVKLNLQKLGVAATSAPMHDDE
# Assays:
# ΔN-HAB1 = assay: Ligand/receptor-mediated PP2C (ΔN-HAB1 phosphatase) inhibition by recombinant PYR1 sensors; format: biochemical, Arabidopsis; details: for response of evolved organophosphate receptors to native ligand ABA: HAB1 inhibition and Y2H assays, ABA tested at 5000 nM in Y2H; for EC50: read-out: EC50, receptor-mediated inhibition of HAB1 phosphatase activity in vitro
# Protocol: Coding sequences of the cannabinoid sensors were cloned into the protein expression vector pET28a to encode 6×His-tag-receptor fusions.
# (§1) High-affinity sensors were tested for cross reaction using both Y2H and in vitro PP2C assays. […] Similar methods were used to characterize PYR1^PIRI and PYR1^WIN sensor selectivity and sensitivity.
# Luc^N-PYR1/Luc^C-ΔN-HAB1 = assay: In vivo split NanoLuc luciferase complementation in yeast; format: cell-based, S. cerevisiae; details: read-out: EC50 split luciferase reconstitution
# Protocol: Ligand was added to yeast cultures 12 h prior to measuring cell luminescence. A sample of each culture was diluted to an OD600 of 0.2, 10 μL of which was transferred to a 96-well plate, the luciferase reagent mixture (Nano-Glo live cell substrate; Promega) diluted to a 1× concentration with DI water was added to the cell sample to a final volume of 200 μL. The relative luminescence signal (RLU) was measured using a Synergy™ Neo2 Multi-Mode Microplate Reader in luminescence detection mode for 30 minutes after the addition of the reagents. The RLU of each measured sample was taken as the average value of the time course once the signal had reached a plateau.
# A protein complementation output assay of evolved PYR-based sensors was carried out by NanoLuc split luciferase (19). The larger fragment, LgBit (or Luc^N), was fused to N-terminus of PYR1 variants, while the small fragment, SmBit (or Luc^C) was fused to N-terminus of ΔN-HAB1. […] Ligand was added to yeast cultures 12 hour prior to measuring cell luminescence. […] The relative luminescence signal (RLU) was immediately measured continuously in a Synergy™ Neo2 Multi-Mode Microplate Reader over 30 minutes. The average value of RLU of each measured sample was taken once the measurements had reached a stable value. […]
# HAB1 = assay: Y2H X-gal staining of evolved sensors: ligand responsiveness and cross reaction; format: cell-based, Arabidopsis; details: Y2H, FIG. 7; WIN 55,212-2 or 4F-MDMB-BUTINACA
# Protocol: as §1
# The PYL2 coding sequence cloned in the Y2H pBD vector was used as template to incorporate the corresponding PYR1^WIN and PYR1^4F homologous residues via site directed mutagenesis using the QuikChange Lightning Multi Site-Directed mutagenesis kit (Agilent Technologies). Resulting clones PYL2^WIN (K64Q, F165A, V1661) and PYL2^4F (H119Q, Y124G, F165V, V166G) were sequence confirmed and incorporated into MAV99 harboring pACT-HAB1 and tested for ligand activation using uracil-independent growth and X-gal staining experiments. The same method was used to generate a PYL2^WIN version in a protein expression vector for crystallization studies.
Molecule,response of evolved organophosphate receptors to native ligand ABA (ΔN-HAB1),"EC50 (ΔN-HAB1; sensor PYR1^DIAZI, ligand diazinon) [nM]","EC50 (Luc^N-PYR1/Luc^C-ΔN-HAB1; Luc^N-PYR1^DIAZI/Luc^C-HAB1 in yeast, ligand diazinon) [nM]","EC50 (ΔN-HAB1; sensor PYR1^PIRI, ligand pirimiphos-methyl) [nM]","EC50 (Luc^N-PYR1/Luc^C-ΔN-HAB1; Luc^N-PYR1^PIRI/Luc^C-HAB1 in yeast, ligand pirimiphos-methyl) [nM]",ligand responsiveness of PYL2 transposed sensors (HAB1)
B1,no longer bind the native ligand ABA; also recorded: neither receptor was activated by ABA,36,24,,,
B2,no longer bind the native ligand ABA; also recorded: neither receptor was activated by ABA,,,58,19,
B3,,,,,,nM ligand responsiveness
